From US20260109747A1

Tests used:
Assay in all cases: cell-based or functional assay
[1] = molecular target: cynomolgus monkey IL-2Rα/β/γ (cynomolgus monkey)
human IL-2Rα/β/γ (human) = human IL-2Rα/β/γ (human) (UniProt P01589)
human IL-2Rβ/γ (human) = human IL-2Rβ/γ (human) (UniProt P14784)
mouse IL-2Rβ/γ (mouse) = molecular target: T1, mouse IL-2Rβ/γ (mouse) (UniProt P16297)
T1 sequence (looked up) 1: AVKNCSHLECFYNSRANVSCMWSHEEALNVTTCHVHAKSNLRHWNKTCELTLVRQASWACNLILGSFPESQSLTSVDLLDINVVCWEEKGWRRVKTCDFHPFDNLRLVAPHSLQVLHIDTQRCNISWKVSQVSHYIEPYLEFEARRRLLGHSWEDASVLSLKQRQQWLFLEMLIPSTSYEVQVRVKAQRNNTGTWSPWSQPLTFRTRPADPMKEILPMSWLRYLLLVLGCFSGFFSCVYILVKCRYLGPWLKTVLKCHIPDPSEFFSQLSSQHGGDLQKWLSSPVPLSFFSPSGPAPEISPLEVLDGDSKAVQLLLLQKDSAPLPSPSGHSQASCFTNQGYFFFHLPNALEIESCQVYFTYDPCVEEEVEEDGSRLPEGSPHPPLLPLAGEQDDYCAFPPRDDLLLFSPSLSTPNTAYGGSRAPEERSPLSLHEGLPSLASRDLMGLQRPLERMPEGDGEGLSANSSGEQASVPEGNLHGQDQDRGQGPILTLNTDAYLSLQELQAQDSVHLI
T1 sequence (looked up) 2: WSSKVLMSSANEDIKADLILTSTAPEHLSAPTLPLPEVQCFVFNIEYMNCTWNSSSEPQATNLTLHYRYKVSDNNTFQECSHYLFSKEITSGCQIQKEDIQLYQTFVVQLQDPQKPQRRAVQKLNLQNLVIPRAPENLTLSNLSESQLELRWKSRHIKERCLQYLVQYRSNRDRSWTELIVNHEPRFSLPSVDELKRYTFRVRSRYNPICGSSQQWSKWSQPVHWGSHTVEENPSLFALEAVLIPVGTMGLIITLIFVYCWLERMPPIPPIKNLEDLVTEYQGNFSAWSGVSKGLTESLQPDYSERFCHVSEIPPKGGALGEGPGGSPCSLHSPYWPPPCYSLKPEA

Chain of his-tagged mammalian expressed control human IL-2, compound 13 (P60568 other isoform, or with tags, fused parts or gaps limits assumed): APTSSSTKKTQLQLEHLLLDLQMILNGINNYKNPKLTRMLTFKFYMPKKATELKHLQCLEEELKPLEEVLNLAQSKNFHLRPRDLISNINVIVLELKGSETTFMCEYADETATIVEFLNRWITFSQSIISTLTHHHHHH
Chain of human IL-2Rβ/γ (human) (P14784 27-551, chain 1 of 2): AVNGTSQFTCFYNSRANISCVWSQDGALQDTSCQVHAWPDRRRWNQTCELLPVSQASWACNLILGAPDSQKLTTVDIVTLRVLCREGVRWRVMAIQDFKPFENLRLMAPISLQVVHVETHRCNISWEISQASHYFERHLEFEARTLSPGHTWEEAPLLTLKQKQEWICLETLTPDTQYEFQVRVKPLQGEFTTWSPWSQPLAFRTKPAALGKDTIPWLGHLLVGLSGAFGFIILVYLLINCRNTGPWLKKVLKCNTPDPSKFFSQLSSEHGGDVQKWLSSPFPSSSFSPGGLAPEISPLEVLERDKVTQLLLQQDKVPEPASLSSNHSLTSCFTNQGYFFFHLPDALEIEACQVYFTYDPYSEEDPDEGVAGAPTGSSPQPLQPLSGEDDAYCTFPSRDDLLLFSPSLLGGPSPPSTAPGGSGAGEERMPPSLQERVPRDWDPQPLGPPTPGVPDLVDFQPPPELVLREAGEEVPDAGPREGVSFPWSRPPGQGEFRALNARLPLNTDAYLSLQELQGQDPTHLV
Chain of human IL-2Rβ/γ (human) (P31785 23-369, chain 2 of 2, further chain): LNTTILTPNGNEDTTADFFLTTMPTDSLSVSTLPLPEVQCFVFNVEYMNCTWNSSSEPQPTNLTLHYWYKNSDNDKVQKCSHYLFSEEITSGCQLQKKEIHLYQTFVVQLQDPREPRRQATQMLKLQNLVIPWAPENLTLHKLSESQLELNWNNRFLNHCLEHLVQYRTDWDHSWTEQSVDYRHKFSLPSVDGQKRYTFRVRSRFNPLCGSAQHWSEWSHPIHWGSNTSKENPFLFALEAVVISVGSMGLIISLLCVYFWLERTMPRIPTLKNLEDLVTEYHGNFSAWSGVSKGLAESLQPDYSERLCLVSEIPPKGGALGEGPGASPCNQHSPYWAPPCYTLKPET
Chain of human IL-2Rα/β/γ (human) (P01589 22-272, chain 1 of 3): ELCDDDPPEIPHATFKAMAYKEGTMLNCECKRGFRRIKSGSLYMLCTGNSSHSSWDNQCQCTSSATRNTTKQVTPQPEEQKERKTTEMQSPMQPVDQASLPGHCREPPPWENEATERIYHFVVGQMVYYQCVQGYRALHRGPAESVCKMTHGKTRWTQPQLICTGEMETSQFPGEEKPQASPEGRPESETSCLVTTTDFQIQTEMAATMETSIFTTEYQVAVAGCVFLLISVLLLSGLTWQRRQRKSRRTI
Chain of human IL-2Rα/β/γ (human) (P14784 27-551, chain 2 of 3, further chain): as the sequence (P14784 27-551, chain 1 of 2) above
Chain of human IL-2Rα/β/γ (human) (P31785 23-369, chain 3 of 3, further chain): as the sequence (P31785 23-369, chain 2 of 2, further chain) above

pSTAT5 EC50, Treg, cynomolgus monkey whole blood [1]: 0.09 ng/mL
pSTAT5 EC50, Treg, human whole blood (human IL-2Rα/β/γ (human)): 0.09 ng/mL
pSTAT5 EC50, CD8, human blood (additional experiments) (human IL-2Rβ/γ (human)): 4.94 ng/mL
pSTAT5 EC50, CD8, human whole blood (human IL-2Rβ/γ (human)): 25.7 ng/mL
pSTAT5 EC50, NK, human blood (additional experiments) (human IL-2Rβ/γ (human)): 17.6 ng/mL
pSTAT5 EC50, NK, human whole blood (human IL-2Rβ/γ (human)): 6.01 ng/mL
pSTAT5 EC50, CD8, mouse blood (mouse IL-2Rβ/γ (mouse)): 24000 ng/mL
pSTAT5 EC50, NK, mouse blood (mouse IL-2Rβ/γ (mouse)): 9690 ng/mL
Substance: his-tagged mammalian expressed control human IL-2, compound 13 (from UniProt P60568 21-153) (ligand)
